Experimental data: PMC8913300, “Two distinct classes of cochaperones compete for the EEVD motif in heat shock protein 70 to tune its chaperone activities” (The Journal of Biological Chemistry, 2022)
Each block holds one substance with its values, some of them ahead of it.

What was measured:
[1] = test system: Hsp72 ATPase activity; test: Intrinsic ATPase activity of Hsp72 variants (malachite green); type: biochemical; conditions: 1 μM Hsp72, 2.5 mM ATP, 1 h at 37 °C, mean ± SD (n = 3)
Method: (§1) ATPase assays were carried out using the malachite green assay as described ([14], [83]). In brief, 1 μM Hsp72 and various concentrations of DnaJB4 were added to clear 96-well plates, and the reactions were initiated by addition of 2.5 mM ATP. Reactions were allowed to proceed for 1 h at 37 °C, after which they were developed using malachite green reagent and quenched with sodium citrate. Plate absorbance was measured at 620 nm, and a standard curve of sodium phosphate was used to convert the absorbance values to pmol ATP/μM Hsp72/min. Vmax and Km, app were derived as fit parameters to a modified Michaelis–Menten model (ATPase rate=Vmax∗[DnaJB4]/(Km, app+[DnaJB4])) where Vmax reflects the maximal increased ATP hydrolysis conferred by DnaJB4 binding and Km,app represents the half-maximal concentration of DnaJB4 binding to and stimulating the ATPase activity of Hsp72.

[2] = target: T1, DnaJB4 (Homo sapiens, UniProt Q9UDY4); test: DnaJB4 FP competition (displacement of Hsp72 tracer); type: binding; conditions: 100 μM peptide, 5 μM DnaJB4, 20 nM Hsp72 tracer, 30 min room temperature; for % tracer displacement: relative to DMSO control, mean ± SD (n = 4)
T1 construct: 6-His with TEV-cleavable linker (N, cleaved yes); made in house; host or cells: Escherichia coli BL21 (DE3) Rosetta
Method: (§2) All FP experiments were performed in 384-well, black, low-volume, round-bottom plates at a final assay volume of 18 μl (Corning 4511). Polarization values in millipolarization units (mP) were measured at an excitation wavelength of 485 nm and an emission wavelength of 525 nm, with 100 flashes per read using a Spectramax M5 plate reader (Molecular Devices). All experiments were performed 2 times in quadruplicate. Experimental data were analyzed using GraphPad Prism 9. Saturation binding data were background subtracted, and curves were fit using the model [Agonist] versus response (three parameters). For competition experiments, data were background subtracted to tracer alone and normalized to DMSO control to determine relative tracer displacement.
Unlabeled peptides were assessed for the ability to compete with the Hsp72 tracer. Briefly, 100 μM peptides were incubated with 5 μM DnaJB4 and 20 nM Hsp72 tracer in JDP binding buffer (see above). The plate was covered from light and allowed to incubate at room temperature for 30 min prior to reading.

[3] = target: T2, CHIP (Homo sapiens, UniProt Q9UNE7); test: CHIP FP competition (displacement of Hsp72 tracer); type: binding; conditions: 100 μM peptide, 1.58 μM CHIP, 20 nM Hsp72 tracer, 30 min room temperature
T2 construct: 6-His with TEV-cleavable linker (N, cleaved yes); made in house; host or cells: E. coli BL21(DE3)
T2 sequence (Q9UNE7 1-303): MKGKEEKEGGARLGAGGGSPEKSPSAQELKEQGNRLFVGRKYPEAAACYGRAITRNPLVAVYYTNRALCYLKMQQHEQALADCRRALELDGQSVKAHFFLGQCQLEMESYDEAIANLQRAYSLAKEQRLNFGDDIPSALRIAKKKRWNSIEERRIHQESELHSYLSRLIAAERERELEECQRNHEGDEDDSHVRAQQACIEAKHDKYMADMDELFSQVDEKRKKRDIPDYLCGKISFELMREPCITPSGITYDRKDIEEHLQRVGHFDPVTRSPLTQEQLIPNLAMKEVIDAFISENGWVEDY
Method: as §2
Mixtures of 1.58 μM CHIP and 20 nM Hsp72 tracer were incubated with 100 μM unlabeled competitor peptides in CHIP FP assay buffer (50 mM Hepes pH 7.4, 50 mM KCl, 0.01% Triton X-100). The plate was covered from light and allowed to incubate at room temperature for 30 min prior to reading.

[4] = test system: Hsp72–DnaJB4 complex; test: Luciferase refolding by Hsp72/DnaJB4 in the presence of TPR cochaperones; type: biochemical; conditions: 1 μM Hsp72, 100 nM denatured luciferase, 120 nM DnaJB4; CHIP titration or 10 μM TPR protein; 1 h at 37 °C
Method: (§3) Experiments were performed as described ([14]). Briefly, Renilla luciferase (Promega) was denatured in 8 M GdnHCl for 2 h at room temperature. Hsp72 (1 μM) and denatured luciferase (100 nM) were diluted into a working concentration in buffer containing an ATP regenerating system (23 mM Hepes, 120 mM KAc, 1.2 mM MgAc, 15 mM DTT, 61 mM creatine phosphate, 35 units/ml creatine kinase, and 5 ng/μl bovine serum albumin, pH 7.4). A titration series of DnaJB4 was added, and the reaction was initiated with the addition of 2.5 mM ATP. For competition assays with DnaJB4, complexes of Hsp72 (1 μM), denatured luciferase (100 nM), and DnaJB4 (120 nM) were incubated with either a titration of CHIP or 10 μM of indicated TPR protein. In all cases, the assay was allowed to incubate for 1 h at 37 °C in white, 96-well flat-bottom plates (Corning 3990). Luminescence was measured using the SteadyGlo luminescence reagent (Promega), and percent refolded luciferase was calculated using a standard curve of 100 to 0 nM native luciferase.

[5] = target: T1, DnaJB4; test: Differential scanning fluorimetry of DnaJB4 with chaperone peptides; type: binding; conditions: 5 μM DnaJB4, 100 μM peptide; for DnaJB4 apparent melting temperature (Tm,app): 5× Sypro Orange, JDP binding buffer, mean ± SD (n = 4), without peptide 57 ± 0.06 °C
Method: DSF was performed with a 15-μl assay volume in 384-well Axygen quantitative PCR plates (Fisher Scientific) on a qTower ([3]) real-time PCR thermal cycler (Analytik Jena). Fluorescence intensity readings were taken over 70 cycles in “up-down” mode, where reactions were heated to desired temperature and then cooled to 25 °C before reading. The temperature was increased 1 °C per cycle. Each well contained 5 μM DnaJB4, 5 × Sypro Orange dye (Thermo Fisher), and 100 μM of peptide in JDP binding buffer. Fluorescence intensity data were truncated between 45 and 70 °C, plotted relative to temperature, and fit to a Boltzmann Sigmoid in Prism 9.0 (GraphPad). DnaJB4 apparent melting temp (Tm,app) was calculated based on the following equation: Y = Bottom + ((Top-Bottom)/(1 + exp(Tm-T/Slope))).

[6] = test system: denatured Renilla luciferase; test: Luciferase refolding by Hsp72 variants in the presence of DnaJA2; type: biochemical; conditions: 1 μM Hsp72, 100 nM denatured luciferase, 1 h at 37 °C
[7] = test system: denatured Renilla luciferase; test: Luciferase refolding by Hsp72 variants in the presence of DnaJB4; type: biochemical; conditions: 1 μM Hsp72, 100 nM denatured luciferase, DnaJB4 titration, 1 h at 37 °C
Method: as §3

[8] = test system: Hsp90⍺ ubiquitination by CHIP; test: In vitro ubiquitination of Hsp90⍺ by CHIP in the presence of DnaJB4; type: biochemical; conditions: 1 μM CHIP, 1 μM FAM-labeled Hsp90⍺, increasing DnaJB4, 10 min room temperature
Method: (§4) Four 4 × stock solutions were prepared containing (i) Ube1 (R&D Systems) + UbcH5c/UBE2D3 (R&D Systems) (400 nM Ube1 and 4 μM UbcH5c), (ii) Ubiquitin (R&D Systems) (1 mM Ub), (iii) CHIP + substrate + DnaJB4 (4 μM CHIP, 4 μM substrate, varying concentrations of DnaJB4), and (iv) ATP + MgCl2 (10 mM ATP and 10 mM MgCl2) in ubiquitination assay buffer (50 mM Tris pH 8.0, 15 mM NaCl). CHIP + substrate + DnaJB4 solutions were allowed to equilibrate at room temperature for 30 min prior to initiating the reaction. Ubiquitination reactions were generated by adding 10 μl of each 4 × stock, in order from 1 to 4, for a final volume of 40 μl(100 nM Ube1, 1 μM UbcH5c, 250 μM ubiquitin, 2.5 mM ATP, 2.5 mM MgCl2, 1 μM CHIP and 1 μM substrate). […] Samples were separated by SDS-PAGE on 4% to 20% polyacrylamide gels (Bio-Rad) and analyzed by in-gel fluorescence on a Chemidoc Imager (Bio-Rad) using the SYBR green fluorescence setting or by staining with Coomassie blue reagent. Quantitation of substrate ubiquitination was performed by densitometry analysis in ImageJ (NIH), which was thresholded to a no-CHIP control.
(§5) Substrates for in vitro ubiquitination assays were labeled with 6-carboxyfluorescein (FAM) to enable in-gel fluorescence measurement of ubiquitination as described ([35]). […]

[9] = test system: MAPT/tau ubiquitination by CHIP; test: In vitro ubiquitination of MAPT/tau by CHIP in the presence of DnaJB4; type: biochemical; conditions: 1 μM CHIP, tau substrate, 30 min room temperature
Method: Four 4 × stock solutions were prepared containing (i) Ube1 (R&D Systems) + UbcH5c/UBE2D3 (R&D Systems) (400 nM Ube1 and 4 μM UbcH5c), (ii) Ubiquitin (R&D Systems) (1 mM Ub), (iii) CHIP + substrate + DnaJB4 (4 μM CHIP, 4 μM substrate, varying concentrations of DnaJB4), and (iv) ATP + MgCl2 (10 mM ATP and 10 mM MgCl2) in ubiquitination assay buffer (50 mM Tris pH 8.0, 15 mM NaCl). CHIP + substrate + DnaJB4 solutions were allowed to equilibrate at room temperature for 30 min prior to initiating the reaction. Ubiquitination reactions were generated by adding 10 μl of each 4 × stock, in order from 1 to 4, for a final volume of 40 μl(100 nM Ube1, 1 μM UbcH5c, 250 μM ubiquitin, 2.5 mM ATP, 2.5 mM MgCl2, 1 μM CHIP and 1 μM substrate). Reactions were incubated at room temperature (10 min for chaperone ubiquitination, 30 min for tau ubiquitination), quenched in 20 μl 3 × SDS-PAGE loading buffer (188 mM Tris-HCl pH 6.8, 3% SDS, 30% glycerol, 0.01% bromophenol blue, 15% β-mercaptoethanol), and heated to 95 °C for 5 min. Samples were separated by SDS-PAGE on 4% to 20% polyacrylamide gels (Bio-Rad) and analyzed by in-gel fluorescence on a Chemidoc Imager (Bio-Rad) using the SYBR green fluorescence setting or by staining with Coomassie blue reagent. Quantitation of substrate ubiquitination was performed by densitometry analysis in ImageJ (NIH), which was thresholded to a no-CHIP control. […]

[10] = test system: Hsp70–CHIP complex; test: In vitro ubiquitination of Hsc70 by CHIP in the presence of DnaJB4; type: biochemical; conditions: 1 μM CHIP, 1 μM FAM-labeled Hsc70, increasing DnaJB4, 10 min room temperature
Method: as §4, §5

[11] = test system: WT Hsp72; test: DnaJB4 stimulation of ATPase activity of WT Hsp72 (malachite green); type: biochemical
Method: as §1

[12] = test system: Hsp72 ΔEEVD; test: DnaJB4 stimulation of ATPase activity of Hsp72 ΔEEVD (malachite green); type: biochemical; conditions: Hsp72 ΔEEVD mutant
Method: as §1

[13] = test system: Hsp72 I637A; test: DnaJB4 stimulation of ATPase activity of Hsp72 I637A (malachite green); type: biochemical
Method: as §1

T1 sequence (Q9UDY4 whole entry): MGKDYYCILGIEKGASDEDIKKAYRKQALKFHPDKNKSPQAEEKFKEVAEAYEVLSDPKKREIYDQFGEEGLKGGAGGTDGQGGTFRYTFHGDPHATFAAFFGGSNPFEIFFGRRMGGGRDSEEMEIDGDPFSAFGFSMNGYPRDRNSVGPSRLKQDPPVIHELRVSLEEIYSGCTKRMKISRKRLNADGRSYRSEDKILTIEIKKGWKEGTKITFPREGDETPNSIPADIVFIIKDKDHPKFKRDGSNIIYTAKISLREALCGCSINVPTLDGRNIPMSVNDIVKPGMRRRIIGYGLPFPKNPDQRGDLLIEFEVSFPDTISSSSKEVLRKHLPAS

Substance: WT Hsp72: full-length recombinant Hsp72/HSPA1A
intrinsic ATPase activity [1]: 10.9 ± 2.8 pmol ATP/min

Substance: IEEVD
binding to DnaJB4 in FP competition relative to WT Hsp72 peptide [2]: further worsened it

Substance: HOP: Hsc70 organizing protein, TPR cochaperone
effect on client (luciferase) refolding by Hsp72–DnaJB4 [4]: suppressed luciferase refolding

Substance: Hsp90⍺: unlabeled, N-acetylated 10-mer peptide corresponding to the C terminus of Hsp90⍺
DnaJB4 apparent melting temperature (Tm,app) [5]: 57 ± 0.15 °C | % tracer displacement [2]: −7.7 ± 1.5%

Substance: Hsp72 I637A: full-length Hsp72 with point mutation of the critical P5 isoleucine residue
luciferase refolding in the presence of DnaJA2 [6]: comparably with WT | ability to coordinate with DnaJB4 in luciferase refolding [7]: nearly completely impaired | intrinsic ATPase activity [1]: 15.8 ± 3.9 pmol ATP/min

Substance: Hsp72 ΔEEVD: mutant of full-length Hsp72 in which the EEVD motif was deleted
ability to coordinate with DnaJB4 in luciferase refolding [7]: nearly completely impaired | intrinsic ATPase activity [1]: 4.6 ± 1.9 pmol ATP/min

Substance: DnaJB4: representative class B J-domain protein, recombinant, full length
effect on Hsp90 ubiquitination by CHIP [8]: no effect | effect on ubiquitination of Hsc70 and tau by CHIP [9]: suppressed | effect on Hsp70 ubiquitination by CHIP [10]: dose-dependent inhibition | stimulation of Vmax,app over baseline ([11]; WT Hsp72): ~4 fold | maximum ATPase activity (Vmax,app) ([11]; WT Hsp72 1 μM, DnaJB4 titration, 2.5 mM ATP, 1 h at 37 °C, Michaelis–Menten fit): 37.8 ± 3.5 pmol ATP/min | Km ([11]; WT Hsp72 1 μM, DnaJB4 titration, Michaelis–Menten fit, read-out: half-maximal concentration (Km,app)): ~0.06 µM | stimulation of ATPase activity [12]: unable to stimulate | Vmax,app above baseline ([13]; Hsp72 I637A): ~2 fold | Vmax,app ([13]; Hsp72 I637A 1 μM, DnaJB4 titration, 2.5 mM ATP, 1 h at 37 °C, Michaelis–Menten fit): 23.9 ± 3.6 pmol ATP/min | Km ([13]; Hsp72 I637A 1 μM, DnaJB4 titration, Michaelis–Menten fit, read-out: Km,app): ~0.01 µM

Substance: GSGPTIEEVD [Hsp72, unlabeled, N-acetylated 10-mer peptide corresponding to the C terminus of Hsp72/HSPA1A]
DnaJB4 apparent melting temperature (Tm,app) [5]: 58 ± 0.21 °C | positive shift in the melt curves ([5]; versus no peptide): 1 to 2 °C | % tracer displacement [2]: 40.2 ± 4.6%

Now from value to substance, other results behind:

binding to DnaJB4 in FP competition relative to WT Hsp72 peptide [2]: drastically reduced binding
Substance: GSGPTIEEVD-CONH2 [peptide with an amidated Hsp72 C terminus]
binding to CHIP in FP competition relative to WT Hsp72 peptide [3]: carboxylate was important for binding to CHIP

binding to DnaJB4 in FP competition relative to WT Hsp72 peptide [2]: significantly weakened affinity
Substance: TIEEVD

DnaJB4 apparent melting temperature (Tm,app) [5]: 57 ± 0.20 °C | % tracer displacement [2]: −1.3 ± 2.2%
Substance: Hsp90β: unlabeled, N-acetylated 10-mer peptide corresponding to the C terminus of Hsp90β
